The target in test [1] is rat nerve growth factor (rat) (UniProt P25427). The test can be described thus: cell-based or functional assay.
Test [2] concerns the target human nerve growth factor (human) (UniProt P01138). The test can be described thus: cell-based or functional assay.
Test [3] has the same target. The test can be described thus: BIAcore SPR, Fab over immobilised human NGF (100 RU).
For test [4] the target is unchanged. Briefly: BIAcore SPR, Fab over immobilised human NGF.
The target is the same in test [5]. Briefly: BIAcore SPR, Fab over immobilised human NGF (100 RU). The source holds these as a separate data set. (In general: In SPR one partner is held on a chip, and binding of the other changes the refractive index at the surface.)
For test [6] the target is unchanged.

The text below walks through data of patent US20170088610A1.

Read-outs that look alike come from different tables or passages of the source.

Sequence of human nerve growth factor (human) (P01138 122-241 limits assumed): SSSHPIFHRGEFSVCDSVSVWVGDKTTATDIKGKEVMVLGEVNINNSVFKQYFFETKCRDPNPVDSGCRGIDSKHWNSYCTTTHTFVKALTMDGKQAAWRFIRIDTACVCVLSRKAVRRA
Sequence of rat nerve growth factor (rat) (P25427 122-241 limits assumed): as the sequence (P01138 122-241 limits assumed) above, with S3T, I6V, R9M, M37T, D60A, D65E, M92T, G94D, V117A, A120G counted along it

Usually koff stands for a measure of how fast the partners let go of each other. A higher koff goes with a short-lived complex. The term Kd denotes the constant that tells how readily two partners part at equilibrium. Read a high Kd as lower affinity. As a reminder, the kon is a measure of how fast the partners come together. Low values mean slow association, high ones fast association. In test [1], “mouse monoclonal anti-NGF antibody 911 (Fab)” gave an IC50, rat NGF-dependent survival of mouse E13.5 trigeminal neurons (1.5 pM NGF) of 34.6 pM and an IC50, rat NGF-dependent survival of mouse E13.5 trigeminal neurons (15 pM NGF) of 161 pM. In addition, in test [2], the IC50, human NGF-dependent survival of mouse E13.5 trigeminal neurons (1.5 pM NGF) is 63.5 pM; the IC50, human NGF-dependent survival of mouse E13.5 trigeminal neurons (15 pM NGF) is 322 pM; the NGF-elicited survival of E17/18 trigeminal neurons turned out to be 20 nM. The substance also returned a koff in test [3] of 8.4e-05 s⁻¹. The substance further yielded a Kd in test [4] of 10 nM. In test [5], this substance yielded a Kd of 3.7 nM, a koff of 9e-05 s⁻¹ and a kon of 22000 M⁻¹ s⁻¹.

In test [6], trkA receptor immunoadhesin (Fc fusion) yielded an IC50 (read off the curve), NGF-dependent survival of E13.5 trigeminal neurons (0.4 ng/ml human NGF, 48 h) of 0.07 nM.
